Test results as given in patent US7005130.

Experiments:
[1] = target: HPLC-purified recombinant ORF2 capsid protein of human HEV Sar-55 (baculovirus-expressed) (human HEV, Sar-55 strain (Pakistan)) (UniProt P33426); test: ELISA, antigen coated at 2 µg/ml, serum 1/200; negative control
[2] = target: HPLC-purified recombinant ORF2 capsid protein of swine HEV (baculovirus-expressed) (swine HEV); test: as above

Chain of UniProt P33426 (P33426 112-607): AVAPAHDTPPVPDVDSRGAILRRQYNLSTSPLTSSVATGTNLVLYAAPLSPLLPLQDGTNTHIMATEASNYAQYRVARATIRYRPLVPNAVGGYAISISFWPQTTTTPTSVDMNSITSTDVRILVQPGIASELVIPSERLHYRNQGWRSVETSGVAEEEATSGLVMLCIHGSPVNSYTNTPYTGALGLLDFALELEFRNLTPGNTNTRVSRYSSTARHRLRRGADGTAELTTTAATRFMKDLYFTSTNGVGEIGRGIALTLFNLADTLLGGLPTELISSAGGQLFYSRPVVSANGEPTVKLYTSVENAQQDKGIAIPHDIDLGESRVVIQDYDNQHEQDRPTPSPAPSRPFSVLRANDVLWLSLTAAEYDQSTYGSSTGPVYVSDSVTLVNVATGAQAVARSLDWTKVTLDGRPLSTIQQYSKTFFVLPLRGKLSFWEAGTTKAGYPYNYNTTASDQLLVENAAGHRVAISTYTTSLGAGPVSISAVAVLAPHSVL

Substance “preinoculation control chicken serum (antibody)” has an OD [1] of 0.142 OD at 405 nm and an OD [2] of 0.103 OD at 405 nm.
